Molecular target: human Fc (human)
Experiment: ELISA, negative control

Binder | optical density
373_A05 (antibody, V domains shown) VH: EVQLLESGGGLVQPGGSLRLSCAASGFTFSDYSMNWVRQAPGKGLEWVSGINYNSGYKSYADSVKGRFTISRDNSKNTLYLQMNSLRAEDTAVYYCARGANWHDTHLDYWGQGTLVTVSS VL: DIQMTQSPSSLSASVGDRVTITCRASQSILSYVNWYQQKPGKAPKLVIYAATSRHSGVPSRFSGSGSGTDFTLTISSLQPEDFATYYCQQSYESPLTFGGGTKVEIK | 0.172 OD
373_A09 (antibody, V domains shown) VH: EVQLLESGGGLVQPGGSLRLSCAASGFTFDSYSMNWVRQAPGKGLEWVAGINYNGGYTSYADSVKGRFTISRDNSKNTLYLQMNSLRAEDTAVYYCARGANWHDTALDYWGQGTLVTVSS VL: DIQMTQSPSSLSASVGDRVTITCRASQSILTYLNWYQQKPGKAPKLLIYAATSLASGVPSRFSGSGSGTDFTLTISSLQPEDFATYYCQQSYDTPLTFGGGTKVEIK | 0.248 OD
367_H01 (antibody, V domains shown) VH: EVQLLESGGGLVQPGGSLRLSCAASGFTFDSYGMNWVRQAPGKGLEWVSGINYNGGYKSYADSVKGRFTISRDNSKNTLYLQMNSLRAEDTAVYYCARAANWHDTALDYWGQGTLVTVSS VL: DIQMTQSPSSLSASVGDRVTITCRASQSILTYLNWYQQKPGKAPKLVIYAATSRASGVPSRFSGSGSGTDFTLTISSLQPEDFATYYCQQSYDNPLTFGGGTKVEIK | 0.388 OD
373_A03 (antibody, V domains shown) VH: EVQLLESGGGLVQPGGSLRLSCAASGFTFSDYSMNWVRQAPGKGLEWVANINYNGGYTGYADSVKGRFTISRDNSKNTLYLQMNSLRAEDTAVYYCARGANWHDTALDYWGQGTLVTVSS VL: DIQMTQSPSSLSASVGDRVTITCRASQSILSYLNWYQQKPGKAPKLVIYAATSRASGVPSRFSGSGSGTDFTLTISSLQPEDFATYYCQQSYDNPLTFGGGTKVEIK | 0.189 OD
373_A01 (antibody, V domains shown) VH: EVQLLESGGGLVQPGGSLRLSCAASGFTFSSYGMNWVRQAPGKGLEWVSNINYNGGYTGYADSVKGRFTISRDNSKNTLYLQMNSLRAEDTAVYYCARGANWHDTHLDYWGQGTLVTVSS VL: DIQMTQSPSSLSASVGDRVTITCRASQSIVTYLNWYQQKPGKAPKLVIYATTSRASGVPSRFSGSGSGTDFTLTISSLQPEDFATYYCQQSYNLPLTFGGGTKVEIK | 0.177 OD
372_G12 (antibody, V domains shown) VH: EVQLLESGGGLVQPGGSLRLSCAASGFTFDSYSMNWVRQAPGKGLEWVAGINYNGGYTGYADSVKGRFTISRDNSKNTLYLQMNSLRAEDTAVYYCARGANWHDTHLDYWGQGTLVTVSS VL: DIQMTQSPSSLSASVGDRVTITCRASQSILTYLNWYQQKPGKAPKLVIYAATSRHSGVPSRFSGSGSGTDFTLTISSLQPEDFATYYCQQSYDSPLTFGGGTKVEIK | 0.439 OD
373_B05 (antibody, V domains shown) VH: EVQLLESGGGLVQPGGSLRLSCAASGFTFSDYSMNWVRQAPGKGLEWVSNINYNGGYKSYADSVKGRFTISRDNSKNTLYLQMNSLRAEDTAVYYCARGANWHDTALDYWGQGTLVTVSS VL: DIQMTQSPSSLSASVGDRVTITCRASQSIVTYLNWYQQKPGKAPKLVIYAATSRASGVPSRFSGSGSGTDFTLTISSLQPEDFATYYCQQSYSNPLTFGGGTKVEIK | 0.184 OD

The next lines start with the values.

optical density | Binder
0.358 OD | 371_H10 (antibody, V domains shown) VH: EVQLLESGGGLVQPGGSLRLSCAASGFTFSSYSMNWVRQAPGKGLEWVAGINYNSGYKSYADSVKGRFTISRDNSKNTLYLQMNSLRAEDTAVYYCARGANWHDTHLDYWGQGTLVTVSS VL: DIQMTQSPSSLSASVGDRVTITCRASQSISTYLNWYQQKPGKAPKLLIYAATSRHSGVPSRFSGSGSGTDFTLTISSLQPEDFATYYCQQSYENPLTFGGGTKVEIK
0.206 OD | 373_C07 (antibody, V domains shown) VH: EVQLLESGGGLVQPGGSLRLSCAASGFTFDSYSMNWVRQAPGKGLEWVAGINYNSGYTSYADSVKGRFTISRDNSKNTLYLQMNSLRAEDTAVYYCARGANWHDTHLDYWGQGTLVTVSS VL: DIQMTQSPSSLSASVGDRVTITCRASQSILTYLNWYQQKPGKAPKLVIYAATSRASGVPSRFSGSGSGTDFTLTISSLQPEDFATYYCQQSYETPLTFGGGTKVEIK
0.184 OD | 373_A11 (antibody, V domains shown) VH: EVQLLESGGGLVQPGGSLRLSCAASGFTFSNYGMNWVRQAPGKGLEWVANINYNGGYTGYADSVKGRFTISRDNSKNTLYLQMNSLRAEDTAVYYCARGANWHDTALDYWGQGTLVTVSS VL: DIQMTQSPSSLSASVGDRVTITCRASQSILTYLNWYQQKPGKAPKLLIYAATSRASGVPSRFSGSGSGTDFTLTISSLQPEDFATYYCQQSYDLPLTFGGGTKVEIK
0.171 OD | 373_C03 (antibody, V domains shown) VH: EVQLLESGGGLVQPGGSLRLSCAASGFTFSSYSMNWVRQAPGKGLEWVSGINYNGGYKSYADSVKGRFTISRDNSKNTLYLQMNSLRAEDTAVYYCARGANWHDTALDYWGQGTLVTVSS VL: DIQMTQSPSSLSASVGDRVTITCRASQSIVTYLNWYQQKPGKAPKLVIYAATSRASGVPSRFSGSGSGTDFTLTISSLQPEDFATYYCQQSYDSPLTFGGGTKVEIK
0.319 OD | 372_D03 (antibody, V domains shown) VH: EVQLLESGGGLVQPGGSLRLSCAASGFTFSSYSMNWVRQAPGKGLEWVAGINYNSGYKSYADSVKGRFTISRDNSKNTLYLQMNSLRAEDTAVYYCARGANWHDTALDYWGQGTLVTVSS VL: DIQMTQSPSSLSASVGDRVTITCRASQSILSYVNWYQQKPGKAPKLVIYAVTSRHSGVPSRFSGSGSGTDFTLTISSLQPEDFATYYCQQSYDSPLTFGGGTKVEIK
0.371 OD | 372_B02 (antibody, V domains shown) VH: EVQLLESGGGLVQPGGSLRLSCAASGFTFSSYSMNWVRQAPGKGLEWVSGINYNSGYTSYADSVKGRFTISRDNSKNTLYLQMNSLRAEDTAVYYCARGANWHDTALDYWGQGTLVTVSS VL: DIQMTQSPSSLSASVGDRVTITCRASQSILSYVNWYQQKPGKAPKLLIYAVTSLASGVPSRFSGSGSGTDFTLTISSLQPEDFATYYCQQSYETPLTFGGGTKVEIK
0.179 OD | 373_A12 (antibody, V domains shown) VH: EVQLLESGGGLVQPGGSLRLSCAASGFTFSSYSMNWVRQAPGKGLEWVSSINYNGGYTSYADSVKGRFTISRDNSKNTLYLQMNSLRAEDTAVYYCARGANWHDTALDYWGQGTLVTVSS VL: DIQMTQSPSSLSASVGDRVTITCRASQSILTYLNWYQQKPGKAPKLVIYAATSRASGVPSRFSGSGSGTDFTLTISSLQPEDFATYYCQQSYDTPLTFGGGTKVEIK
0.409 OD | 372_E01 (antibody, V domains shown) VH: EVQLLESGGGLVQPGGSLRLSCAASGFTFDDYSMNWVRQAPGKGLEWVSGINYNGGYKGYADSVKGRFTISRDNSKNTLYLQMNSLRAEDTAVYYCARGANWHDTALDYWGQGTLVTVSS VL: DIQMTQSPSSLSASVGDRVTITCRASQSIVSYLNWYQQKPGKAPKLVIYAATSRHSGVPSRFSGSGSGTDFTLTISSLQPEDFATYYCQQSYDSPLTFGGGTKVEIK
0.208 OD | 373_B07 (antibody, V domains shown) VH: EVQLLESGGGLVQPGGSLRLSCAASGFTFDSYSMNWVRQAPGKGLEWVSGINYNGGYTSYADSVKGRFTISRDNSKNTLYLQMNSLRAEDTAVYYCARGANWHDTALDYWGQGTLVTVSS VL: DIQMTQSPSSLSASVGDRVTITCRASQSILTYVNWYQQKPGKAPKLVIYAATSRASGVPSRFSGSGSGTDFTLTISSLQPEDFATYYCQQSYELPLTFGGGTKVEIK
